# Test results published in PMC2173041.
# Molecular target: Notch receptor (Drosophila) (UniProt P07207)
# Assay: competitive cell aggregation assay
# Sequence of UniProt P07207 (P07207 53-2703): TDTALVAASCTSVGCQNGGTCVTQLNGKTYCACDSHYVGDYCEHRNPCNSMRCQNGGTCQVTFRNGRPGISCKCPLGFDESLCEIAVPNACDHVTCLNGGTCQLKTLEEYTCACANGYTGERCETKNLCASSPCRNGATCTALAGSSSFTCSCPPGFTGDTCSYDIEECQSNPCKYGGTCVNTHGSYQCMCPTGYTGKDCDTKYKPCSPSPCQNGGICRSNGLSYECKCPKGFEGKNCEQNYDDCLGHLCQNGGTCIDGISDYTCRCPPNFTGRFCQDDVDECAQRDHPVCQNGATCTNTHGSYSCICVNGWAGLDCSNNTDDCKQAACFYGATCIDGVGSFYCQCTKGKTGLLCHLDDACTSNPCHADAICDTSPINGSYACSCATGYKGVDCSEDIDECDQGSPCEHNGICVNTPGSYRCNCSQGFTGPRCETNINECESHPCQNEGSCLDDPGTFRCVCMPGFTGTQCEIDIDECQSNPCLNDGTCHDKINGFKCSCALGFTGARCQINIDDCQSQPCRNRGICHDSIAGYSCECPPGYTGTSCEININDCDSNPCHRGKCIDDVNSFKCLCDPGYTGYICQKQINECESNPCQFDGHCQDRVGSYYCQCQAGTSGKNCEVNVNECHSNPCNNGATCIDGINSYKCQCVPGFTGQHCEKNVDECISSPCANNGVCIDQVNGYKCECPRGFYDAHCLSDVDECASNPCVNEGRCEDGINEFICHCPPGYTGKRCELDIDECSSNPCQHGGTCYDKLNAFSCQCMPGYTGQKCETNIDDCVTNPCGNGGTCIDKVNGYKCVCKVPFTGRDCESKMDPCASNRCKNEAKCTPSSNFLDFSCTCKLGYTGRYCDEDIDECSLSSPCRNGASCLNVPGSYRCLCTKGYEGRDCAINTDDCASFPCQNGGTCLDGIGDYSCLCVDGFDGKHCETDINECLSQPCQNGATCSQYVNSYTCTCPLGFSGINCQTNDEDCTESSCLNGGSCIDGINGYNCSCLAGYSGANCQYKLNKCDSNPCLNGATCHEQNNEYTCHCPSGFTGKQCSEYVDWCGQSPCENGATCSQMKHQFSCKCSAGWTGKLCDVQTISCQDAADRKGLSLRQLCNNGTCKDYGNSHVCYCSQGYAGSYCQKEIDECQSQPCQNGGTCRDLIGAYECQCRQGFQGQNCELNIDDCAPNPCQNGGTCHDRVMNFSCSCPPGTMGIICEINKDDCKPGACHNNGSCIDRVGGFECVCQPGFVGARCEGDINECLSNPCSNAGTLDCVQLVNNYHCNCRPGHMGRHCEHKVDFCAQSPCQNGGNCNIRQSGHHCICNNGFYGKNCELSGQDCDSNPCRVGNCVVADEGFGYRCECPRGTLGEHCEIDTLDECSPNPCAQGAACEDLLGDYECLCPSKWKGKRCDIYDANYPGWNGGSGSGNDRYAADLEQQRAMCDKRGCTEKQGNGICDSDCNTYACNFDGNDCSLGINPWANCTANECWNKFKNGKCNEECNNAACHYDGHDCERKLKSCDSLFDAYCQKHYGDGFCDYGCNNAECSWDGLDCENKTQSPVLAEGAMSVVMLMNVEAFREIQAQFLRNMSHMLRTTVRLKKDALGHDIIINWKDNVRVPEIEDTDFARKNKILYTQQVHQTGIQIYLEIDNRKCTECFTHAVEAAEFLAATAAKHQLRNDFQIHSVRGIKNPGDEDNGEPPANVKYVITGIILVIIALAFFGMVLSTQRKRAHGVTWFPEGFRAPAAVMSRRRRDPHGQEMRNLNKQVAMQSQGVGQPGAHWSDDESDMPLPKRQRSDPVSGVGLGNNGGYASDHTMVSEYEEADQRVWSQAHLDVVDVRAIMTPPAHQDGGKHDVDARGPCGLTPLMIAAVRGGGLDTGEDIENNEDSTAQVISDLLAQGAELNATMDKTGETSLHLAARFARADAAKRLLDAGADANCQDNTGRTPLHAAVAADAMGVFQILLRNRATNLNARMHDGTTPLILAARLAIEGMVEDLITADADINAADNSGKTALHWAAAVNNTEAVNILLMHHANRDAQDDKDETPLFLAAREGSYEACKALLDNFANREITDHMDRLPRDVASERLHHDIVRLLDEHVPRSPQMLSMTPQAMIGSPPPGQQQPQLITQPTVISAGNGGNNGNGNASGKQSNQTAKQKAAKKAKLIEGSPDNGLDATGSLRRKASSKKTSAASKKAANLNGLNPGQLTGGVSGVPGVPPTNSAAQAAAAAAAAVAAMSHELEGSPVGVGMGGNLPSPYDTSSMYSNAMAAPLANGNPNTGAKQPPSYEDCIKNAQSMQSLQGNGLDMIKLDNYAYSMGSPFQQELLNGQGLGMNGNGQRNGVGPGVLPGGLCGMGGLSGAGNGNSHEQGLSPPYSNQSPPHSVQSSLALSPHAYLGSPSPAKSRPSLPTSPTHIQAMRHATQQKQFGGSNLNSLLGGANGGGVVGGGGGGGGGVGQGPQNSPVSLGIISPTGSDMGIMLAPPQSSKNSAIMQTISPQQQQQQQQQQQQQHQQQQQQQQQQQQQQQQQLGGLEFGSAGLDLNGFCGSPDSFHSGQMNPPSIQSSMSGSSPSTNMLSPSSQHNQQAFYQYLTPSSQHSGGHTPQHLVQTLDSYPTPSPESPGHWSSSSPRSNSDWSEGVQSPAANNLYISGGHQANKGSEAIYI
substance,measurement,value
"DlEC, extracellular fragment of Delta released by cleavage (from UniProt P10041 19-581) (domain or fragment)",percent inhibition of aggregation at >0.5 μM DlEC,< 20%
